From paper PMC4489804 come the findings set out here.

The experiment deals with DCP1-CFP (Arabidopsis thaliana) (UniProt Q9SJF3). Nature of the experiment: FRET or BRET; FRET acceptor photobleaching in transiently transfected Arabidopsis leaf epidermis cells; DCP1-CFP donor, YFP-gSPI or free YFP acceptor, 35S promoter; whole cells and stationary P-bodies measured. (Bioluminescence resonance energy transfer reports proximity on the nanometre scale.)
Sequence of UniProt Q9SJF3 (Q9SJF3 whole entry): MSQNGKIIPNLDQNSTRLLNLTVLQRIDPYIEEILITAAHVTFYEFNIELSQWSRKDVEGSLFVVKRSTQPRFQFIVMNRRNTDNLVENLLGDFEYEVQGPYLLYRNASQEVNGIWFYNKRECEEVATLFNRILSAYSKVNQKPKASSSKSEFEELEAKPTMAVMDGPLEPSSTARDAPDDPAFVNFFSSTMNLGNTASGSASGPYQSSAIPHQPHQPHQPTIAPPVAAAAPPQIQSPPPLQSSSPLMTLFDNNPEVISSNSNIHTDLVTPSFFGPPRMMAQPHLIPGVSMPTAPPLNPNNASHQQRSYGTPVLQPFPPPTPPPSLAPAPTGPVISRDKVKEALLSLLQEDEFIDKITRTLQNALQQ

With “YFP-tagged full-length genomic SPI, F4HZB2 1-3601”, the FRET efficiency (FRETE), immobile P-bodies turned out to be 23% and the FRET efficiency (FRETE), whole cells was determined as 27%.
